These results are taken from paper PMC8571522, “siRNA screening identifies METTL9 as a histidine Nπ-methyltransferase that targets the proinflammatory protein S100A9” (The Journal of Biological Chemistry, 2021).

The target in assay [1] is T1, recombinant S100A9 prepared by cleavage of GST-S100A9, methylated in vitro by GST-METTL9 in the presence of … (mouse, UniProt P31725 1-113, Nπ-methylhistidine at His-107).
T1 construct: S100A9, mouse; methylated at His-107 by METTL9; also called de novo methylated S100A9; methylated recombinant S100A9; source: E. coli BL21-CodonPlus (DE3)-RIL, purified (Glutathione Sepharose 4B), GST removed with PreScission Protease; in vitro methylation reaction with GST-METTL9 in the presence of SAM
T1 sequence (looked up): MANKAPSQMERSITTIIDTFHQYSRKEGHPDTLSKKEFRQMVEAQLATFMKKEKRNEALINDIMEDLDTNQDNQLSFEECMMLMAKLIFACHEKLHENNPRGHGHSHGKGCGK
Briefly: pull-down; recombinant GST-cleaved S100A9 after an in vitro methylation reaction with GST-METTL9 in the presence or the absence of SAM, then binding to GST-S100A8 (Fig. S6). The following applies: both partners purified.

Assay [2] addresses T2, recombinant S100A9 prepared by cleavage of GST-S100A9, after the reaction with GST-METTL9 in the absence of … (mouse, UniProt P31725 1-113).
T2 construct: S100A9, mouse; also called GST-cleaved S100A9; mS100A9; source: E. coli BL21-CodonPlus (DE3)-RIL, purified (Glutathione Sepharose 4B), GST removed with PreScission Protease; incubated with GST-METTL9 in the absence of SAM
T2 sequence (looked up): T1 sequence (looked up)
The description is as above. The settings on record: both partners purified.

B1: GST-fused mouse S100A8 (natural protein, UniProt P27005 1-89, looked up)
chain: MPSELEKALSNLIDVYHNYSNIQGNHHALYKNDFKKMVTTECPQFVQNINIENLFRELDINSDNAINFEEFLAMVIKVGVASHKDSHKE
notes: S100A8, mouse; Held on glutathione beads in the pull-downs; also called GST-S100A8; mS100A8; source: E. coli BL21, purified (Glutathione Sepharose 4B)
On to B1, for which the binding result in assay [1] and in assay [2] was “binds” each time.
